Results: the RNAGym collection of RNA variant scans (doi:10.7554/elife.80360)

B1: CPEB3 Ribozyme (parent)
chain: GGGGGCCACAGCAGAAGCGUUCACGUCGCGGCCCCUGUCAGAUUCUGGUGAAUCUGCGAAUUCUGCUGU

Variants of: B1
Experiment: self-cleavage, relative activity (ratio to wild type); higher = more cleavage; co-transcriptional

Variant	self-cleavage
GGGGGCCACAGCUGAAGCGUUCAGGUCGCGGCCCCUGUCAGAUUCUGGUGAAUCUGCGAAUUCUGCUGU	0.127
GGGGGCCACAGCGGAAGCGUUCACGUCGCGGCCCCUGUCAGAUUCUGGGGAAUCUGCGAAUUCUGCUGU	0.989
GGGGGCCACAGCGGAAGCGUUCACGUCGCGGCCCCUGUCAGAUUCUGGCGAAUCUGCGAAUUCUGCUGU	1.01
GGGGGCCACAGCUGAAGCGUUCACGUCGCGGCCCCUGUCAGAUUCUGGUGAAUCUGAGAAUUCUGCUGU	0.194
GGGGGCCACAGCUGAAGCGUUCACGUCGCGGCCCCUGUCAGAUUCUGGUGAACCUGCGAAUUCUGCUGU	0.357
GGGGGCCACAGCUGAAGCGUUGACGUCGCGGCCCCUGUCAGAUUCUGGUGAAUCUGCGAAUUCUGCUGU	0.148
GGGGGCCACAGCUGAAGCGUUUACGUCGCGGCCCCUGUCAGAUUCUGGUGAAUCUGCGAAUUCUGCUGU	0.171
GGGGGCCACAGCUGAAGCGUUAACGUCGCGGCCCCUGUCAGAUUCUGGUGAAUCUGCGAAUUCUGCUGU	0.161
GGGGGCCACAGCAAAAGCGUUCACGUCGCGGCCCCUGUCAGAUUCUGGUGAAUCUGCGAAUUCUGCUGU	0.832
GGGGGCCACAGCAAAAGCGUUCACGUCGCGGCCCCUGUCAGAUUCUGGUGGAUCUGCGAAUUCUGCUGU	0.81
GGGGGCCACAGCUGAAGCGUUCACGUCGCGGCCCCUGUCAGAUUCUGGUGAAUCUGCCAAUUCUGCUGU	0.788
GGGGGCCACAGCUGAAGCGUUCACGUCGCGGCCCCUGUCAGAUUCUGGUGAAUCUGCUAAUUCUGCUGU	0.911
GGGGGCCACAGCUGAAGCGUUCACGUCGCGGCCCCUGUCAGAUUCUGGUGAAUCUGCGAAUUUUGCUGU	0.648
GGGGGCCACAGCGGAAGCGUUCACGUCGCGGCCCCUGUCAGAUUCUGGUGAAUCAGCGAAUUCUGCUGU	0.722
GGGGGCCACAGCUGAAGCGUUCACGUCGCGGCCCCUGUCAGAUUCUGGUGAAUGUGCGAAUUCUGCUGU	0.419
GGGGGCCACAGCAAAAGCGUUCUCGUCGCGGCCCCUGUCAGAUUCUGGUGAAUCUGCGAAUUCUGCUGU	0.875
GGGGGCCACAGCUGAAGCGUUCACGUCGCGGCCCCUGUCAGAUUCUGGUGAAUCUGCGAAUGCUGCUGU	0.299
GGGGGCCACAGCUGAAGCGUUCACGUCGCGGCCCCUGUCAGAUUCUGGUGAAUCUGCGAAUCCUGCUGU	0.278
GGGGGCCACAGCUGAAGCGUUCACGUCGCGGCCCCUGUCAGAUUCUGGUGAAUCUGCGAAUUCUGCUGU	0.888
GGGGGCCACAGCUGAAGCGUUCACGUCGCGGCCCCUGUCAGAUUCUGAUGAAUCUGCGAAUUCUGCUGU	0.911
GGGGGCCACAGCAAAAGCGUUCACGUCGCGGCCCCUGUCAGGUUCUGGUGAAUCUGCGAAUUCUGCUGU	0.372
GGGGGCCACAGCAAAAGCGUUCACGUCGCGGCCCCUGUCAGUUUCUGGUGAAUCUGCGAAUUCUGCUGU	0.329
GGGGGCCACAGCUGAAGCGAUCACGUCGCGGCCCCUGUCAGAUUCUGGUGAAUCUGCGAAUUCUGCUGU	0.0602
GGGGGCCACAGCUGAAGCGUUCACGUCGCGGCCCCUGUUAGAUUCUGGUGAAUCUGCGAAUUCUGCUGU	0.422
GGGGGCCACAGCUGAAGCGUUCACGUCGCGGCCCCCGUCAGAUUCUGGUGAAUCUGCGAAUUCUGCUGU	0.647
GGGGGCCACAGCGGAAGCGUUCACGUCGCGGCCCCUGUCAGAUUCUGGUGAAUCUGCGAAUUCUGCGGU	0.897

Variant	self-cleavage
GGGGGCCACAGCUGAAGCGUUCACGUCGCGGCCCCUGUCAGAUUCUCGUGAAUCUGCGAAUUCUGCUGU	0.877
GGGGGCCACAGCAAUAGCGUUCACGUCGCGGCCCCUGUCAGAUUCUGGUGAAUCUGCGAAUUCUGCUGU	0.424
GGGGGCCACAGCAAGAGCGUUCACGUCGCGGCCCCUGUCAGAUUCUGGUGAAUCUGCGAAUUCUGCUGU	0.823
GGGGGCCACAGCGGAAGCGUUCACGACGCGGCCCCUGUCAGAUUCUGGUGAAUCUGCGAAUUCUGCUGU	0.767
GGGGGCCACAGCUGAAGCGUUCACGUCGCGGCCCCUGUCAGAUUCUGGUGAAUCCGCGAAUUCUGCUGU	0.403
GGGGGCCACAGCUGAAGCGUUCACGUCGCGGCCCCUGUCAGAUUCUGGUGAAUCUGCGAAUUCUGCGGU	0.827
GGGGGCCACAGCAAAAGCGUUCACGUCGCGGCCCCUGUCAGAUUCUGGUGAAUCUGCGCAUUCUGCUGU	0.343
GGGGGCCACAGCGGAAGCGUUCACGUCGCGGCCCCUGUCAGAUCCUGGUGAAUCUGCGAAUUCUGCUGU	0.824
GGGGGCCACAGCGGAAGCGUUCACGUCGCGGCCCCUGUCAGAUACUGGUGAAUCUGCGAAUUCUGCUGU	0.877
GGGGGCCACAGCUGAAGCGUUCACGUCGCGGCCCCUAUCAGAUUCUGGUGAAUCUGCGAAUUCUGCUGU	0.184
GGGGGCCACAGCUGAACCGUUCACGUCGCGGCCCCUGUCAGAUUCUGGUGAAUCUGCGAAUUCUGCUGU	0.116
GGGGGCCACAGCAAAAGCGUUCACGUCGCGGCCCCUGUCAGAUUCUGGUGAGUCUGCGAAUUCUGCUGU	0.805
GGGGGCCACAGCGGAAGCGUUCACGUCGCGGCCCCUGUCAGAUUCUGGUGAAUCUGCGAAAUCUGCUGU	0.834
GGGGGCCACAGCUGAAGCGUUCACGUCGCGGCCCCUGUCAUAUUCUGGUGAAUCUGCGAAUUCUGCUGU	0.333
GGGGGCCACAGCUGAAGCGUUCACGUCGCGGCCCCUGUCAGAUUCUGGAGAAUCUGCGAAUUCUGCUGU	0.91
GGGGGCCACAGCUGAAGCGUUCACGUCGCGGCCCCUGUCAGAUUCUGGGGAAUCUGCGAAUUCUGCUGU	0.901
GGGGGCCACAGCAAAAGCGUUCACGUCGCGGCCCCUGUCUGAUUCUGGUGAAUCUGCGAAUUCUGCUGU	0.21
GGGGGCCACAGCUGAAGCGUUCCCGUCGCGGCCCCUGUCAGAUUCUGGUGAAUCUGCGAAUUCUGCUGU	0.793
GGGGGCCACAGCUGAAGCGUUCACGUCGCGGCCCCUGUCAGAUUCUGGUGAAUCUGCGAAUUCUGGUGU	0.413
GGGGGCCACAGCUGAAGCGUUCACGUCGCGGCCCCUGUCUGAUUCUGGUGAAUCUGCGAAUUCUGCUGU	0.265
GGGGGCCACAGCUGAAGCGUUCACGUCGCGGCCCCUGUCCGAUUCUGGUGAAUCUGCGAAUUCUGCUGU	0.163
GGGGGCCACAGCUGAAGCGUUCACGUCGCGGCCCCUGUCAGAUUUUGGUGAAUCUGCGAAUUCUGCUGU	0.904
GGGGGCCACAGCGGAAGCGAUCACGUCGCGGCCCCUGUCAGAUUCUGGUGAAUCUGCGAAUUCUGCUGU	0.0779
GGGGGCCACAGCGGAAGCGCUCACGUCGCGGCCCCUGUCAGAUUCUGGUGAAUCUGCGAAUUCUGCUGU	0.199
GGGGGCCACAGCUGAAGCGUUCACGUCGCGGCCCCUGUCAGCUUCUGGUGAAUCUGCGAAUUCUGCUGU	0.586
GGGGGCCACAGCUGAAGCGUUCACGUGGCGGCCCCUGUCAGAUUCUGGUGAAUCUGCGAAUUCUGCUGU	0.155

Variant	self-cleavage
GGGGGCCACAGCUGAAGCGUUCACGUUGCGGCCCCUGUCAGAUUCUGGUGAAUCUGCGAAUUCUGCUGU	0.134
GGGGGCCACAGCUGAAGCGUUCACGUCGCGACCCCUGUCAGAUUCUGGUGAAUCUGCGAAUUCUGCUGU	0.623
GGGGGCCACAGCUGAAGCGUUCACGUCUCGGCCCCUGUCAGAUUCUGGUGAAUCUGCGAAUUCUGCUGU	0.165
GGGGGCCACAGCUGAAGAGUUCACGUCGCGGCCCCUGUCAGAUUCUGGUGAAUCUGCGAAUUCUGCUGU	0.132
GGGGGCCACAGCGGAAGCGUUCACGUCGCGGCCCCUGUCAGAUUCCGGUGAAUCUGCGAAUUCUGCUGU	0.927
GGGGGCCACAGCUGAAGCGUUCACCUCGCGGCCCCUGUCAGAUUCUGGUGAAUCUGCGAAUUCUGCUGU	0.0789
GGGGGCCACAGCUGAAGCGUUCACUUCGCGGCCCCUGUCAGAUUCUGGUGAAUCUGCGAAUUCUGCUGU	0.108
GGGGGCCACAGCUCAAGCGUUCACGUCGCGGCCCCUGUCAGAUUCUGGUGAAUCUGCGAAUUCUGCUGU	0.351
GGGGGCCACAGCUGAAGCGUUCACGUCGCGGCCCAUGUCAGAUUCUGGUGAAUCUGCGAAUUCUGCUGU	0.197
GGGGGCCACAGCUGAAGCGUUCACGUCGCGGCCCUUGUCAGAUUCUGGUGAAUCUGCGAAUUCUGCUGU	0.826
GGGGGCCACAGCUGAAGCGUUCACGACGCGGCCCCUGUCAGAUUCUGGUGAAUCUGCGAAUUCUGCUGU	0.626
GGGGGCCACAGCUGAAGCGUUCACGCCGCGGCCCCUGUCAGAUUCUGGUGAAUCUGCGAAUUCUGCUGU	0.422
GGGGGCCACAGCUGAAGCGUUCACGGCGCGGCCCCUGUCAGAUUCUGGUGAAUCUGCGAAUUCUGCUGU	0.287
GGGGGCCACAGCGGAAGCGUUCACGUCGCGGCCCCGGUCAGAUUCUGGUGAAUCUGCGAAUUCUGCUGU	0.227
GGGGGCCACAGCUGAAGCGUUCACGUCGCGGCCCCUGUCAGAUUCUGGUGAAUCUUCGAAUUCUGCUGU	0.348
GGGGGCCACAGCUGAAGCGUUCACGUCGCGGCCCCUGUCAGAUUCUGGUGAAUCUGCGUAUUCUGCUGU	0.464
GGGGGCCACAGCUGAAGCGUUCACGUCGCGGCCCCUGUCAGAGUCUGGUGAAUCUGCGAAUUCUGCUGU	0.221
GGGGGCCACAGCGGAAGCGUUCACGUCGCGGCCCCUGUCAGAUUCUGGUGAAUCUGCGAAUUCUGCUUU	0.95
GGGGGCCACAGCGGAAGCGUUCACGUCGCGGCCCCUGUCAGAUUCUGGUGAAUCUGCGAAUUCUGCUCU	0.924
GGGGGCCACAGCGGAAGCGUUCACGUCGCGGCCCCUGUCAGAUUCUGGUGAAUCUGCGAAUUCUGCUGA	1
GGGGGCCACAGCGGAAGCGUUCACGUCGCGGCCCCUGUCAGAAUCUGGUGAAUCUGCGAAUUCUGCUGU	0.617
GGGGGCCACAGCUGAAGCGUUCACGUCGCGGUCCCUGUCAGAUUCUGGUGAAUCUGCGAAUUCUGCUGU	0.862
GGGGGCCACAGCUGAAGCGUUCACGUCGCGGCUCCUGUCAGAUUCUGGUGAAUCUGCGAAUUCUGCUGU	0.894
GGGGGCCACAGCUGAAGCGUUCACGUCGCGGCCCCUGUCAGAUACUGGUGAAUCUGCGAAUUCUGCUGU	0.659
GGGGGCCACAGCUGAAGCGUUCACGUCGCGGCCUCUGUCAGAUUCUGGUGAAUCUGCGAAUUCUGCUGU	0.917
GGGGGCCACAGCUGAAGCGUUCACGUCGCGGCCCCUGUCAGAUUCUGGUGAAUCUGCGACUUCUGCUGU	0.318
